Assay results taken from PMC11286949, “Structural basis of tRNA recognition by the widespread OB fold”.
Where a chain is given by its changes, count along the chain named. Numbers in names are those of the source.

T1: Arc1p dN (Saccharomyces cerevisiae, UniProt P46672 132-376, del1-131)
T1 sequence: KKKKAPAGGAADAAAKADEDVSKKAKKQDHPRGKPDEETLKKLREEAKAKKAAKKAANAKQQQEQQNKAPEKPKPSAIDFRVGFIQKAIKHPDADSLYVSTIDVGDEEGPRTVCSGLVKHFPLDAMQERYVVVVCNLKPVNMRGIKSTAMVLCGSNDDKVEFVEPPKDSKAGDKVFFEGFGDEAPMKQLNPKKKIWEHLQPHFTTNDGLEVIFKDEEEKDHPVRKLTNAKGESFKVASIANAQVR

T2: Arc1p (Saccharomyces cerevisiae, UniProt P46672 1-376)
T2 sequence: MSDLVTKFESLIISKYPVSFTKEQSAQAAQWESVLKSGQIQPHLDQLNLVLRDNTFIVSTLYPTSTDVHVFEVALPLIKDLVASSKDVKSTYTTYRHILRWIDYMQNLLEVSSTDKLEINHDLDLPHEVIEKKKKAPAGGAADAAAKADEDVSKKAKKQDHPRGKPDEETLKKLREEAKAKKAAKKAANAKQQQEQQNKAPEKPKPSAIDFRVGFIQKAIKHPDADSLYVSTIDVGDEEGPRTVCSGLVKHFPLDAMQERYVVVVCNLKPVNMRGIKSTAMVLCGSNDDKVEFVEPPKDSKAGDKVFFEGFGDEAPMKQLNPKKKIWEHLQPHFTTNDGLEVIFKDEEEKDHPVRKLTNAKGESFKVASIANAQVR

B1: tRNAIle G18C/G19C (G1, Fig. 5a) (structured_RNA)
RNA: GGGCUUGUAGCUCAGGUCCUUAGAGCGCACCCCUGAUAAGGGUGAGGUCGGUGGUUCAAGUCCACUCAGGCCUACCA
B2: tRNAIle G18C/G19C/dACCA (structured_RNA)
RNA: GGGCUUGUAGCUCAGGUCCUUAGAGCGCACCCCUGAUAAGGGUGAGGUCGGUGGUUCAAGUCCACUCAGGCCC
B3: tRNAIle ASL-GAAA/5'GGCC (structured_RNA)
RNA: GGCCGGGCUUGUAGCUCAGGUGGUUAGAGCGCACCGCGAAAGCGGUGAGGUCGGUGGUUCAAGUCCACUCAGGCCC
B4: tRNAIle ASL-GAAA/5'GC (structured_RNA)
RNA: GCGGGCUUGUAGCUCAGGUGGUUAGAGCGCACCGCGAAAGCGGUGAGGUCGGUGGUUCAAGUCCACUCAGGCCC
B5: tRNAIle ASL-GAAA/dACCA (structured_RNA)
RNA: GGGCUUGUAGCUCAGGUGGUUAGAGCGCACCGCGAAAGCGGUGAGGUCGGUGGUUCAAGUCCACUCAGGCCC
B6: tRNAIle ASL-GAAA (structured_RNA)
RNA: GGGCUUGUAGCUCAGGUGGUUAGAGCGCACCGCGAAAGCGGUGAGGUCGGUGGUUCAAGUCCACUCAGGCCUACCA
B7: tRNAIle 3'UGGU (structured_RNA)
RNA: B1 RNA with G1A, C18G, C19G, A74U, C75G, C76G, A77U
B8: tRNAIle d3'A (structured_RNA)
RNA: AGGCUUGUAGCUCAGGUGGUUAGAGCGCACCCCUGAUAAGGGUGAGGUCGGUGGUUCAAGUCCACUCAGGCCUACC
B9: tRNAIle dACCA (structured_RNA)
RNA: B2 RNA with C18G, C19G
B10: ssRNA 3'ACCA (ssRNA)
RNA: CCACUCAGGCCUACCA
B11: MiniH dACCA (structured_RNA)
RNA: AGGCUUGGGUGGUUCAAGUCCACUCAGGCCU
B12: MiniH DNA tail (mixed)
RNA: AGGCUUGGGUGGUUCAAGUCCACUCAGGCCUACCA
modifications: four terminal deoxyriboses
B13: MiniH dC74 (structured_RNA)
RNA: AGGCUUGGGUGGUUCAAGUCCACUCAGGCCUACA
B14: MiniH dA73 (structured_RNA)
RNA: B13 RNA with A32C
B15: MiniH +UUUU (structured_RNA)
RNA: AGGCUUGGGUGGUUCAAGUCCACUCAGGCCUACCAUUUU
B16: MicroH UGGU (structured_RNA)
RNA: AGGCUUCGAAAGAGGCCUUGGU
B17: MicroH GAAA loop (structured_RNA)
RNA: AGGCUUCGAAAGAGGCCUACCA
B18: ssRNA dACCA (ssRNA)
RNA: CCACUCAGGCCU
B19: ssRNA 5'ACCA (ssRNA)
RNA: ACCACUCACGCCU
B20: MiniH ULoop (structured_RNA)
RNA: B12 RNA with C15U, A16U, A17U, G18U
B21: tRNAIle ASL-GAAA dACCA 3bp (structured_RNA)
RNA: GGCGGGCUUGUAGCUCAGGUGGUUAGAGCGCACCGCGAAAGCGGUGAGGUCGGUGGUUCAAGUCCACUCAGGCCCGCC
B22: S. cerevisiae tRNAAsp (G1-C72) (structured_RNA)
RNA: GCCGUGAUAGUUUAAUGGUCAGAAUGGGCGCUUGUCGCGUGCCAGAUCGGGGUUCAAUUCCCCGUCGCGGCGCCA
B23: MiniH-ACAA (structured_RNA)
RNA: B12 RNA with C34A
B24: MiniH-ACGA (structured_RNA)
RNA: B12 RNA with C34G
B25: MiniH-ACUA (structured_RNA)
RNA: B12 RNA with C34U
B26: MiniH LoopGAAA (structured_RNA)
RNA: AGGCUUGGGUGCGAAAGCACUCAGGCCUACCA
B27: MiniH dLoop+6bp (dsRNA)
RNA 1: GCAUGACCACUCAGGCCUACCA
RNA 2: AGGCUUGGGUGGUUAUGC
B28: MicroH 3'UGGU (structured_RNA)
RNA: AGGCUUUUCAAGUAGGCCUUGGU
B29: tRNATyr G17C/G18C (structured_RNA)
RNA: GGUGGGGUUCCCGAGCCCCCAAAGGGAGCAGACUGUAAAUCUGCCGUCAUCGACUUCGAAGGUUCGAAUCCUUCCCCCACCACCA
B30: tRNAIle G18C/G19C (A1, Suppl. Fig. 13b) (structured_RNA)
RNA: B1 RNA with G1A
B31: MiniH dLoop+2bp (dsRNA)
RNA 1: GACCACUCAGGCCUACCA
RNA 2: AGGCUUGGGUGGUC
B32: tRNATyr ASL-GAAA dACCA 6bp (structured_RNA)
RNA: GGGCCCGGUGGGGUUCCCGAGCGGCCAAAGGGAGCAGACGAAAGUCUGCCGUCAUCGACUUCGAAGGUUCGAAUCCUUCCCCCACCGGGCCC
B33: MiniH dLoop+4bp (dsRNA)
RNA 1: GUGACCACUCAGGCCUACCA
RNA 2: AGGCUUGGGUGGUUAC
B34: MiniH dLoop (dsRNA)
RNA 1: CCACUCAGGCCUACCA
RNA 2: AGGCUUGGGUGG
B35: MicroH dACCA (structured_RNA)
RNA: AGGCUUUUCAAGUAGGCCU
B36: MiniH-ACAC (structured_RNA)
RNA: B12 RNA with C34A, A35C
B37: human mascRNA (structured_RNA)
RNA: GAUGCUGGUGGUUGGCACUCCUGGUUUCCAGGACGGGGUUCAAAUCCCUGCGGCGUCUCCA

target: T1, Arc1p dN; experiment: ITC; ITC (Arc1p): 25 mM Tris-HCl pH 7.4, 150 mM NaCl, 2 mM MgCl2, 25 °C. FP and competition FP: 25 mM Tris-HCl pH 7.5, 150 mM NaCl (Arc1p) or 50 mM NaCl (Trbp111), 2 mM MgCl2, room temperature; settings: protein: recombinant; tags: His-MBP removed; elbow disrupted

B1 and B2 are within 1.5-fold of each other in Kd: 3.33 µM for the first, 2.79 ± 0.304 µM for the second.

same assay, conditions: protein: recombinant; tags: His-MBP removed; palindromic tail, strong dimer

With B3 the Kd was 3.3 µM.

same assay, conditions: protein: recombinant; tags: His-MBP removed; palindromic tail, weak dimer

In the case of B4, the Kd is reported as 1.5 ± 0.283 µM.

same assay, conditions: protein: recombinant; tags: His-MBP removed; tRNA fold

First: B5
Second: B6
The Kd of the first is 6.9-fold higher: 1.75 ± 0.958 µM for the first, 0.252 ± 0.11 µM for the second. The second binds more tightly here.

B7 and B8 are within error of each other in Kd: 0.654 ± 0.165 µM for the first, 1.04 ± 0.295 µM for the second.

B9 showed a Kd of 2.1 ± 0.985 µM.

target: T3, Trbp111 (Aquifex aeolicus, UniProt O66738 1-111); experiment: competition FP; vs fluorescein-tRNATyr; FP: 25 mM Tris-HCl pH 7.5, 2 mM MgCl2, 50 mM NaCl (Trbp111) or 150 mM NaCl (Arc1p), room temperature; ITC: 25 mM Tris-HCl pH 7.4, 150 mM NaCl, 2 mM MgCl2, 25 C; settings: protein: recombinant; tags: His-MBP removed (PreScission); chain copies: 2; single strand
T3 sequence (O66738 entry or part of it): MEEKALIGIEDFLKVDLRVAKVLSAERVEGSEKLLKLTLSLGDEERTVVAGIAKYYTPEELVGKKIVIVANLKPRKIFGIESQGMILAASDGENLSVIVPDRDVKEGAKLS

B10 was tested, and the IC50 was 8.2 ± 0.8 µM.

target: T3, Trbp111; experiment: competition fluorescence polarization; ITC (Arc1p): 25 mM Tris-HCl pH 7.4, 150 mM NaCl, 2 mM MgCl2, 25 °C. FP and competition FP: 25 mM Tris-HCl pH 7.5, 150 mM NaCl (Arc1p) or 50 mM NaCl (Trbp111), 2 mM MgCl2, room temperature; settings: protein: recombinant; tags: His-MBP removed (PreScission); chain copies: 2; hairpin

B11: no binding.
B15: no binding.
B16: no binding.

B12 and B13 are within 1.5-fold of each other in IC50: 7.51 ± 1.02 µM for the first, 5.06 ± 0.269 µM for the second.

B14 and B17 are within error of each other in IC50: 5.21 ± 0.817 µM for the first, 5.92 ± 0.188 µM for the second.

same assay, conditions: protein: recombinant; tags: His-MBP removed (PreScission); chain copies: 2; single strand

B18: no binding.
B19: no binding.

In the case of B10, the IC50 is reported as 8.63 ± 0.796 µM.

target: T1, Arc1p dN; experiment: as above; settings: protein: recombinant; tags: His-MBP removed

Compared with B20, B21 is 5.8-fold lower in IC50: 3.95 ± 0.248 µM for the first, 0.681 ± 0.201 µM for the second.

First: B22
Second: B23
The IC50 of the first is 7.7-fold lower: 0.402 ± 0.0538 µM for the first, 3.08 ± 0.63 µM for the second. The first is the more potent here.

First: B24
Second: B25
The IC50 of the first is 1.9-fold higher: 4.83 ± 0.11 µM for the first, 2.6 ± 0.397 µM for the second.

B26 and B27 are within 1.5-fold of each other in IC50: 3.06 ± 0.0821 µM for the first, 3.47 ± 0.263 µM for the second.

First: B28
Second: B29
The IC50 of the first is 23-fold higher: 15.3 ± 3.31 µM for the first, 0.652 ± 0.0471 µM for the second.

Going from B30 to B31, the IC50 rises from 0.804 ± 0.107 µM to 4.66 ± 1.43 µM (5.8-fold).

First: B32
Second: B33
The IC50 of the first is 3.8-fold lower: 1.02 ± 0.224 µM for the first, 3.9 ± 0.124 µM for the second. The first is the more potent here.

With B34 the IC50 was 2.26 ± 1.21 µM.

same assay, conditions: protein: recombinant; tags: His-MBP removed; hairpin

Going from B35 to B11, the IC50 falls from 53.7 ± 5.22 µM to 10.5 ± 2.82 µM (5.1-fold). The second is the more potent here.

B36 and B13 are within 1.5-fold of each other in IC50: 3.92 ± 0.672 µM for the first, 3.03 ± 0.158 µM for the second.

Going from B14 to B15, the IC50 rises from 2.45 ± 0.511 µM to 9.39 ± 0.782 µM (3.8-fold). The first is the more potent here.

Going from B16 to B17, the IC50 falls from 43 ± 7.65 µM to 13.4 ± 5.38 µM (3.2-fold).

same assay, conditions: protein: recombinant; tags: His-MBP removed; tRNA-like

With B37 the IC50 was 0.377 ± 0.0571 µM.

target: T2, Arc1p; experiment: as above; settings: protein: recombinant; tags: His-MBP removed

First: B21
Second: B22
The IC50 of the first is 5.8-fold higher: 9.92 µM for the first, 1.71 ± 0.125 µM for the second. The second is the more potent here.

B29 and B32 are within 1.5-fold of each other in IC50: 4.52 µM for the first, 5.11 µM for the second.

same assay, conditions: protein: recombinant; tags: His-MBP removed; tRNA-like

Binder B37 has an IC50 of 1.14 ± 0.127 µM.
